Assay results as given in US20030170726A1, “Peptides sequences comprising one or several protein binding units of the ena/vasp family and the uses thereof” (priority 2000, published 2003).

B1: N-WASP: N-WASP protein, approximately 45% sequence identity with human WASP protein; interacts with the Arp2/3 complex (protein, UniProt O00401 2-505, looked up)
Actin nucleation-promoting …: SSVQQQPPPPRRVTNVGSLLLTPQENESLFTFLGKKCVTMSSAVVQLYAADRNCMWSKKCSGVACLVKDNPQRSYFLRIFDIKDGKLLWEQELYNNFVYNSPRGYFHTFAGDTCQVALNFANEEEAKKFRKAVTDLLGRRQRKSEKRRDPPNGPNLPMATVDIKNPEITTNRFYGPQVNNISHTKEKKKGKAKKKRLTKADIGTPSNFQHIGHVGWDPNTGFDLNNLDPELKNLFDMCGISEAQLKDRETSKVIYDFIEKTGGVEAVKNELRRQAPPPPPPSRGGPPPPPPPPHNSGPPPPPARGRGAPPPPPSRAPTAAPPPPPPSRPSVAVPPPPPNRMYPPPPPALPSSAPSGPPPPPPSVLGVGPVAPPPPPPPPPPPGPPPPPGLPSDGDHQVPTTAGNKAALLDQIREGAQLKKVEQNSRPVSCSGRDALLDQIRQGIQLKSVADGQESTPPTPAPTSGIVGALMEVMQKRSKAIHSSDEDEDEDDEEDFEDDDEWED
B2: WASP: WASP protein, expressed from the WAS gene mutated in Wiskott-Aldrich Syndrome; interacts with the Arp2/3 complex (protein, UniProt P42768 2-502, looked up)
Actin nucleation-promoting …: SGGPMGGRPGGRGAPAVQQNIPSTLLQDHENQRLFEMLGRKCLTLATAVVQLYLALPPGAEHWTKEHCGAVCFVKDNPQKSYFIRLYGLQAGRLLWEQELYSQLVYSTPTPFFHTFAGDDCQAGLNFADEDEAQAFRALVQEKIQKRNQRQSGDRRQLPPPPTPANEERRGGLPPLPLHPGGDQGGPPVGPLSLGLATVDIQNPDITSSRYRGLPAPGPSPADKKRSGKKKISKADIGAPSGFKHVSHVGWDPQNGFDVNNLDPDLRSLFSRAGISEAQLTDAETSKLIYDFIEDQGGLEAVRQEMRRQEPLPPPPPPSRGGNQLPRPPIVGGNKGRSGPLPPVPLGIAPPPPTPRGPPPPGRGGPPPPPPPATGRSGPLPPPPPGAGGPPMPPPPPPPPPPPSSGNGPAPPPLPPALVPAGGLAPGGGRGALLDQIRQGIQLNKTPGAPESSALQPPPQSSEGLVGALMHVMQKRSRAIHSSDEGEDQAGDEDEDDEWDD
B3: GST-ActA-Pro: recombinant protein composed of GST (237 residues) and proline rich and carboxy-terminal central parts of ActA (350 residues, SEQ ID NO 6) (protein)
chain: DFPPPPTDEELRLALPETPMLLGFNAPATSEPSSFEFPPPPTDEELRLALPETPMLLGFNAPATSEPSSFEFPPPPTEDELEIIRETASSLDSSFTRGDLASLRNAINRHSQNFSDFPPIPTEEELNGRGGRPTSEEFSSLNSGDFTDDENSETTEEEIDRLADLRDRGTGKHSRNAGFLPLNPFASSPVPSLSPKVSKISAPALISDITKKTPFKNPSQPLNVFNKKTTTKTVTKKPTPVKTAPKLAELPATKPQETVLRENKTPFIEKQAETNKQSINMPSLPVIQKEATESDKEEMKPQTEEKMVEESESANNANGKNRSAGIEEGKLIAKSAEDEKAKEEPGNHTT

Legend:
[1] = test system: Arp2/3 complex; test: Actin polymerisation on beads coated with WASP protein, in lysed cell supernatants; assay type: biochemical; conditions: substance added to lysed mammal, in particular human
From the text: a stage of placing, in a medium containing actin and the elements necessary for actin polymerisation i.e. the Arp2/3 complex, in particular in an extract of lysed cell supernatant, the tested molecule with a reagent comprising WASP family proteins in the eucaryotic cells, in particular human or of other mammal cells, or insect cells, or from micro-organisms such as yeasts, or peptide fragments of these WASP family proteins, said peptide fragments having the property of the WASP family proteins to polymerise the actin by inducing cellular motility, or peptide sequences derived from WASP family proteins or the abovementioned peptide fragments, in particular by substitution of one or more amino acids of these fragments, said derived sequences having the abovementioned property of the WASP family proteins and said fragments of the latter, said abovementioned WASP family proteins, or peptide fragments or derived sequences, being bound or adsorbed to a support as defined above,
followed by the optional detection of an inhibition or an activation of the process of actin polymerisation at the surface of said reagent, in comparison to a control, corresponding respectively to an effect of inhibition or of stimulation of the tested molecule on the formation of the actin cytoskeleton by the mechanism involving the bonding of said WASP family proteins, or abovementioned peptide fragments or derived sequences, with the Arp2/3 complex.

[2] = test system: proteins of the Ena/VASP family; test: Actin polymerisation on beads coated with proteins binding to the Ena/VASP family (beads of the invention), in lysed cell supernatants; assay type: biochemical, mammal, in particular human; conditions: for inhibition of actin polymerisation detected using the beads of the invention: substance added to lysed mammal, in particular human, cell supernatants
From the text: a stage of placing the tested molecule in the presence of a reagent as defined above, in a medium containing actin and the elements necessary for actin polymerisation defined above, in particular in an extract of lysed cell supernatant,
followed by the optional detection of an inhibition or an activation of the process of actin polymerisation at the surface of said reagent, in comparison to a control (namely a medium as described above not containing the tested molecule, and in which is found said reagent), corresponding respectively to an effect of inhibition or stimulation of the tested molecule on the formation of the actin cytoskeleton by the mechanism involving the abovementioned protein or peptide bond or their derived sequence, with a protein of the Ena protein/VASP family.
The abovementioned medium in which the tested molecule is placed in the presence of said reagent, advantageously contains a compound labelled in particular by fluorescence, making it possible to detect actin polymerisation on said reagent. By way of illustration, the abovementioned labelled compound is a fluorescent derivative of actin, such as actin-rhodamine (commercially available), making it possible to visualize actin polymerisation by epifluorescence microscopy.
The GST-ActA-Pro protein was adsorbed onto 500 nm latex beads (Polyscience Inc, 400 Valley Road, Warrington Pa., USA) according to the manufacturers' instructions.

[3] = test system: mitochondria carrying zyxin at their surface; test: Actin polymerisation in mitochondria carrying zyxin at their surface; assay type: cell-based
From the text: Furthermore, as a number of processes dependant on actin polymerisation require the recruitment and activation of the Arp2/3 complex, the Inventors have searched for the presence of this complex in the mitochondria carrying zyxin at their surface.

| Molecule | inhibition of actin polymerisation detected using beads coated with WASP protein [1] | inhibition of actin polymerisation detected using the beads of the invention [2] | inhibition of actin polymerisation in the mitochondria [3] | nucleation of actin by the coated beads ([2]; protein adsorbed onto 500 nm latex beads, added to extracts prepared from cells) |
| --- | --- | --- | --- | --- |
| ActA-Pro: ActA protein fragment of Listeria monocytogenes, 350 amino acids, positions 235 to 584 of SEQ ID NO 2 | not inhibited | inhibited | – | – |
| B1 | inhibited | not inhibited | – | – |
| B2 | inhibited | not inhibited | does not inhibit | – |
| B3 | – | – | – | capable of nucleating the actin |
